For the experiment, the target named is full-length 3xflag-LRRK1 (leucine-rich repeat kinase 1) (human) (UniProt Q38SD2). Put plainly: cryo-EM structure; single particle cryo-EM of purified 3xflag-LRRK1 eluted in Tris buffer at pH 7.4 with 0.02% Triton X-100; thin carbon film on Quantifoil grids; EMAN2 2D classes and 3D reconstruction.

Our source for the stoichiometry N values is article PMC5561129.

By stoichiometry N is commonly meant a count of units in the complex or per binding partner.

With “full-length 3xflag-LRRK1 (leucine-rich repeat kinase 1), Q38SD2 1-2015”, the stoichiometry N was determined as 2.
